From patent publication US20230398232A1 (NAVROGEN, published 2023)

Legend:
[1] = biological target: T1, human serum albumin (human, UniProt P02768 25-609); assay: ELISA, plate coated with 1 µg/mL HSA, probed with antibody
T1 construct: Negative control, coated at 1 ug/mL; also called HSA
Procedure: Antibodies were tested for uptake by incubating each with the human ovarian cancer cell line OVCAR3 that express mesothelin and membrane bound CA125. The parental line was used to generate an isogenic CA125 knockdown line via shRNA (referred to as OVCAR3-KO). Both Ab-3 and Ab-4 uptake were measured in replica in black 96-well microplates over the course of 24 hours measuring intracellular fluorescence on a Varioskan™ plate reader. […] Statistical analysis was done using a two-sided student's T-test.
Several studies have reported that antibodies that are bound by CA125 are negatively affected in eliciting humoral mediated immune killing as well as ADC-mediated killing of target cells (Kline J B, et. al. OncoTarget 8:52045-52060, 2017; Kline J B, et al. Eur J Immunol 48:1872-1882, 2018; Kline J B, et al. J Clin Oncol 5:15, 2018; Nicolaides N C, et al. Cancer Biol Ther 13:1-22, 2018; Nicolaides et. al. USPTO application 1698444). In an attempt to identify anti-mesothelin antibodies that naturally are not bound by CA125, we obtained a number of anti-mesothelin antibodies from academic and commercial sources (National Cancer Institute, Creative Biolabs, Novus, etc.) and tested them for CA125 binding. […] Recombinant mesothelin was used as a positive control and human serum albumin (HSA) was used as negative control. […]

[2] = biological target: T2, soluble human CA125 protein (human, UniProt Q8WXI7 1-14451, limits assumed); assay: ELISA, plate coated with 15 KU/mL soluble CA125, probed with antibody, anti-Fc-HRP detection
T2 construct: Coated on the ELISA plate at 15 KU/mL; also called MUC16/CA125; soluble CA125
Procedure: FIG. 1A. Screening for anti-mesothelin antibodies not bound by the immunosuppressive CA125 protein; identification of MES-1 antibody (SEQ ID NO: 1 and 2). Briefly, 96-well ELISA plates were coated with 15 KU/mL of soluble CA125, 1 μg/mL of recombinant human mesothelin protein as a positive control and 1 μg/mL of human serum albumin (HSA) as a negative control and probed with 2.5 μg/mL of different anti-mesothelin antibodies to determine if they are bound by CA125. Wells were washed and detected for binding via a secondary anti-human or anti-rodent Fc-horseradish peroxidase (HRP) conjugated antibody and 3,3′,5,5′-Tetramethylbenzidine (TMB) substrate. Reactions were stopped with 0.1N H₂SO₄ and wells quantified using a multi-well plate reader (Varioskan™, ThermoFisher) at 450 nm. As shown, the antibody MES-1 consisting of SEQ ID NOs: 1 and 2 [Ab-3 (lane 3)] was not bound by CA125 while the other four anti-mesothelin antibodies tested were all bound by CA125. Values were determined from the average of triplicate wells. Statistical analysis was done using student's T-test. FIG. 1B. […] Both Ab-3 and Ab-4 uptake were measured in replica in black 96-well microplates over the course of 24 hours measuring intracellular fluorescence on a Varioskan™ plate reader. […]

B1: MES-1 antibody (antibody, human IgG1, kappa, V domains shown)
VH: EVQLVESGGGLVQPGGSLRLSCAASGFDLGFYFYACWVRQAPGKGLEWVSCIYTAGSGSTYYASWAKGRFTISRDNSKNTLYLQMNSLRAEDTAVYYCARSTANTRSTYYLNLWGQGTLVTVSS
VL: DIQMTQSPSSLSASVGDRVTITCQASQRISSYLSWYQQKPGKVPKLLIYGASTLASGVPSRFSGSGSGTDFTLTISSLQPEDVATYYCQSYAYFDSNNWHAFGGGTKVEIKR
notes: For the uptake assay the antibody carried the pHrodo dye; also called meso-Ab3; Ab-3
[1]
  binding result: no binding (tested: 2.5 µg/mL)
[2]
  binding result: no binding (tested: 2.5 µg/mL)
